Source: publication PMC10667928

Experiments:
[1] = target: Xiphophorus multilineatus melanocortin 4 receptor, mutant B1 allele (Mc4r B1) (X. multilineatus); experiment: FRET or BRET; FRET-FLIM data of the fixed cells sorted by stoichiometry (<0.3, 0.3-0.5, 0.5-0.7, >0.7); dimerization grade by equation (8): β1AR as monomer baseline, CD28 at stoichiometry <0.3 as 100%
[2] = target: Xiphophorus multilineatus melanocortin 4 receptor, mutant B2 allele (Mc4r B2) (X. multilineatus); experiment: as above
[3] = target: Xiphophorus multilineatus melanocortin 4 receptor, wild-type A allele (Mc4r A) (X. multilineatus); experiment: as above
[4] = target: Xiphophorus multilineatus melanocortin 4 receptor, mutant B1 allele (Mc4r B1) (X. multilineatus); experiment: FRET or BRET; FRET-FLIM (pulsed interleaved excitation) on fixed HEK293T cells, basal or apical membrane; first-named protomer with C-terminal eGFP (donor, written as binder), second with C-terminal mCherry (acceptor, written as target); donor/acceptor ratio 1:1 at transfection; lifetime-based FRET efficiency Eτ against donor-only samples
[5] = target: Xiphophorus multilineatus melanocortin 4 receptor, wild-type A allele (Mc4r A) (X. multilineatus); experiment: as above
[6] = target: Xiphophorus multilineatus melanocortin 4 receptor, mutant B1 allele (Mc4r B1) (X. multilineatus); experiment: FRET or BRET; FRET-FLIM (pulsed interleaved excitation) on fixed HEK293T cells, basal or apical membrane; first-named protomer with C-terminal eGFP (donor, written as binder), second with C-terminal mCherry (acceptor, written as target); donor/acceptor ratio 1:5 at transfection; lifetime-based FRET efficiency Eτ against donor-only samples
[7] = target: Xiphophorus multilineatus melanocortin 4 receptor, mutant B2 allele (Mc4r B2) (X. multilineatus); experiment: as above
[8] = target: Xiphophorus multilineatus melanocortin 4 receptor, wild-type A allele (Mc4r A) (X. multilineatus); experiment: as above
[9] = target: human chimeric MC4R chim7 (named Mut in this study) (human) (UniProt P32245); experiment: as above

Substance | dimerization grade at stoichiometry 0.3-0.5 [1] | dimerization grade at stoichiometry <0.3 [1] | dimerization grade at stoichiometry 0.3-0.5 [2] | dimerization grade at stoichiometry <0.3 [2] | dimerization grade at stoichiometry 0.3-0.5 [3] | dimerization grade at stoichiometry <0.3 [3] | FRET efficiency Eτ [4] | FRET efficiency Eτ [5] | donor (eGFP) lifetime; donor-only 2.13 ns [5] | FRET efficiency Eτ [6] | FRET efficiency Eτ [7] | FRET efficiency Eτ [8] | donor (eGFP) lifetime; donor-only 2.13 ns [8] | FRET efficiency Eτ [9]
Xiphophorus multilineatus melanocortin 4 receptor, wild-type A allele (Mc4r A) | 28% | 52% | 28% | 52% | 26% | 76% | 15.4% | 12.7% | 1.85 ns | 21.6% | 23.8% | 26.1% | 1.57 ns | –
human MC4R wild-type (from UniProt P32245 1-332) (receptor) | – | – | – | – | – | – | – | – | – | – | – | – | – | 19.6%
